Blank lines part the entries; values can stand above or below the binder they belong to. Square brackets hold non-standard residues; d marks the D form. Ends that are not written are not given here. pT = C[C@@H](OP(=O)(O)O)[C@H](N)C(=O)O
Assays:
BIN1-SH3 domain = target: T1, BIN1-SH3 domain (UniProt O00499 520-593); assay: NMR titration; 100 µM 15N-labeled BIN1-SH3 domain titrated with aliquots of 4 mM unlabeled peptide; 1H-15N HSQC chemical shift changes fitted to the saturation equation; 20 °C, 50 mM sodium phosphate pH 7.3, 30 mM NaCl, 3 mM DTT, 10% D2O; conditions: both partners purified
T1 construct: SH3 domain of BIN1 (Amphiphysin 2); residue 559 lies in it (isoform 1 numbering); 15N-labelled for NMR; also called 15N-BIN1 SH3
T1 sequence (looked up): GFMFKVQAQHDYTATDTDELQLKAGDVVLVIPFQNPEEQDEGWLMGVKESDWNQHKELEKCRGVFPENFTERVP

[1] = target: T2, human Tau (MAPT transgene, hTau mouse hippocampus) (human, UniProt P10636-8 1-441); assay: proximity ligation; PLA in fixed hippocampal brain slices of 18-month-old control, hTau and hTau;TgBIN1 mice; primary antibodies BIN1-99D or α-tubulin DM1A (mouse) and Tau (rabbit); PLA spot density per tissue area; conditions: partners not purified
T2 construct: human Tau from the human MAPT transgene Tg(MAPT)8cPdav; source: transgenic mouse (hTau; hTau;TgBIN1; no endogenous murine Mapt), hippocampus, fixed brain slices
T2 sequence (P10636 other isoform, or with tags, fused parts or gaps): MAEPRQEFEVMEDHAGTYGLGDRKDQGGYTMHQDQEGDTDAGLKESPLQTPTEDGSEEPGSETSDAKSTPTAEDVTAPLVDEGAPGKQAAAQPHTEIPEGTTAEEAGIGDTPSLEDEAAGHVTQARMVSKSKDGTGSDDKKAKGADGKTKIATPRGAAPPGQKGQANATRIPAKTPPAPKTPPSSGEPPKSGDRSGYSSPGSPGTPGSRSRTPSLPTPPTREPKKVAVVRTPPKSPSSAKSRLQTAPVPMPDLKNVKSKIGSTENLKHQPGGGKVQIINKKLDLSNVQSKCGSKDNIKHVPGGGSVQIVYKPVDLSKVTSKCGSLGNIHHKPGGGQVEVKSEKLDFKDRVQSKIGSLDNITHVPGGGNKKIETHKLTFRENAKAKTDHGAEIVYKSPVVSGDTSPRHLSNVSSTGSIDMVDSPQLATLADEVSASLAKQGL

- Kd (BIN1-SH3 domain): 736 ± 70 µM
B1: phospho-T348 CLAP (334-355) peptide (peptide)
peptide: QLRKGPPVPPPPKH[pT]PSKEVKQ
notes: residues 334-355 of the CLAP domain of BIN1 isoform 1 (neuronal isoform), phosphorylated on T348; unlabeled peptide, 4 mM stock solution; also called phospho-CLAP (334-355)

- Kd (BIN1-SH3 domain): 71 ± 13 µM
B2: CLAP (334-355) peptide (peptide)
peptide: QLRKGPPVPPPPKHTPSKEVKQ
notes: residues 334-355 of the CLAP domain of BIN1 isoform 1 (neuronal isoform); unlabeled peptide, 4 mM stock solution

- fold PLA spot density against control mice [1]: 6.2 fold
- fold PLA spot density against hTau mice [1]: 2.7 fold
B3: human BIN1 (transgene, hTau;TgBIN1 mouse hippocampus) (natural protein, UniProt O00499 1-593, looked up)
chain: MAEMGSKGVTAGKIASNVQKKLTRAQEKVLQKLGKADETKDEQFEQCVQNFNKQLTEGTRLQKDLRTYLASVKAMHEASKKLNECLQEVYEPDWPGRDEANKIAENNDLLWMDYHQKLVDQALLTMDTYLGQFPDIKSRIAKRGRKLVDYDSARHHYESLQTAKKKDEAKIAKPVSLLEKAAPQWCQGKLQAHLVAQTNLLRNQAEEELIKAQKVFEEMNVDLQEELPSLWNSRVGFYVNTFQSIAGLEENFHKEMSKLNQNLNDVLVGLEKQHGSNTFTVKAQPSDNAPAKGNKSPSPPDGSPAATPEIRVNHEPEPAGGATPGATLPKSPSQLRKGPPVPPPPKHTPSKEVKQEQILSLFEDTFVPEISVTTPSQFEAPGPFSEQASLLDLDFDPLPPVTSPVKAPTPSGQSIPWDLWEPTESPAGSLPSGEPSAAEGTFAVSWPSQTAEPGPAQPAEASEVAGGTQPAAGAQEPGETAASEAASSSLPAVVVETFPATVNGTVEGGSGAGRLDLPPGFMFKVQAQHDYTATDTDELQLKAGDVVLVIPFQNPEEQDEGWLMGVKESDWNQHKELEKCRGVFPENFTERVP
notes: human BIN1 expressed under the control of its own promoter; endogenous mouse Bin1 is present in the same tissue; also called hBIN1; Amphiphysin 2; source: transgenic mouse (hTau;TgBIN1), hippocampus, fixed brain slices

Source: PMC6778065, “BIN1 recovers tauopathy-induced long-term memory deficits in mice and interacts with Tau through Thr^348 phosphorylation” (Acta Neuropathologica, 2019)
